Results on 61 molecules are retold here after patent US20190040115A1 (IMMATICS BIOTECHNOLOGIES, published 2019).

The target of the test is T1, HLA-A*02:01 (human).
T1 construct: captured on streptavidin plates; also called peptide-receptive MHC molecules
The test is described as follows: UV peptide exchange ELISA (anti-b2m); yield grade: + >10%, ++ >20%, +++ >50, ++++ >75%. The source says: Candidate peptides for T cell based therapies according to the present invention were further tested for their MHC binding capacity (affinity). The individual peptide-MHC complexes were produced by UV-ligand exchange, where a UV-sensitive peptide is cleaved upon UV-irradiation, and exchanged with the peptide of interest as analyzed. Only peptide candidates that can effectively bind and stabilize the peptide-receptive MHC molecules prevent dissociation of the MHC complexes. To determine the yield of the exchange reaction, an ELISA was performed based on the detection of the light chain (β2m) of stabilized MHC complexes. The assay was performed as generally described in Rodenko et al. (Rodenko et al., 2006).
96 well MAXISorp plates (NUNC) were coated over night with 2 ug/ml streptavidin in PBS at room temperature, washed 4× and blocked for 1 h at 37° C. in 2% BSA containing blocking buffer. Refolded HLA-A*02:01/MLA-001 monomers served as standards, covering the range of 15-500 ng/ml. Peptide-MHC monomers of the UV-exchange reaction were diluted 100 fold in blocking buffer. Samples were incubated for 1 h at 37° C., washed four times, incubated with 2 ug/ml HRP conjugated anti-β2m for 1 h at 37° C., washed again and detected with TMB solution that is stopped with […]. Absorption was measured at 450 nm. Candidate peptides that show a high exchange yield (preferably higher than 50%, most preferred higher than 75%) are generally preferred for a generation and production of antibodies or fragments thereof, and/or T cell receptors or fragments thereof, as they show sufficient avidity to the MHC molecules and prevent dissociation of the MHC complexes.
For orientation: ELISA stands for enzyme-linked immunosorbent assay.

B1: KILPDLNTV (peptide)
peptide: KILPDLNTV
For the molecule B1, the peptide exchange yield was greater than 75%.

B2: LLEPFVHQV (peptide)
peptide: LLEPFVHQV
B2: the peptide exchange yield is greater than 75%.

B3: FLLEQEKTQAL (peptide)
peptide: FLLEQEKTQAL
With B3, the peptide exchange yield is greater than 75%.

B4: FLETNVPLL (peptide)
peptide: FLETNVPLL
Regarding B4, the peptide exchange yield lay in the range of 50 to 75%.

B5: ALDSDPVGL (peptide)
peptide: ALDSDPVGL
As to B5, the peptide exchange yield is 50 to 75%.

B6: HLDEARTLL (peptide)
peptide: HLDEARTLL
As for B6, the peptide exchange yield is greater than 75%.

B7: FLGDPPPGL (peptide)
peptide: FLGDPPPGL
With B7, the peptide exchange yield fell in the range of 50 to 75%.

B8: LLKDSIVQL (peptide)
peptide: LLKDSIVQL
Take B8: the peptide exchange yield was 50 to 75%.

B9: SLLPTEQPRL (peptide)
peptide: SLLPTEQPRL
Consider B9, for which the peptide exchange yield lay in the range of 50 to 75%.

B10: VLNEYFHNV (peptide)
peptide: VLNEYFHNV
Consider B10, for which the peptide exchange yield is greater than 75%.

B11: LLSEIEEHL (peptide)
peptide: LLSEIEEHL
As for B11, the peptide exchange yield is greater than 75%.

B12: SLVAILHLL (peptide)
peptide: SLVAILHLL
Turning to B12, the peptide exchange yield fell in the range of 50 to 75%.

B13: KLLELQELVL (peptide)
peptide: KLLELQELVL
In the case of B13, the peptide exchange yield was greater than 75%.

B14: LLDPTNVFI (peptide)
peptide: LLDPTNVFI
As for B14, the peptide exchange yield is greater than 75%.

B15: HLDQIFQNL (peptide)
peptide: HLDQIFQNL
For the molecule B15, the peptide exchange yield fell in the range of 20 to 50%.

B16: KTWDQVPFSV (peptide)
peptide: KTWDQVPFSV
In the case of B16, the peptide exchange yield was greater than 75%.

B17: FMYNFQLVTL (peptide)
peptide: FMYNFQLVTL
Regarding B17, the peptide exchange yield fell in the range of 20 to 50%.

B18: ALLSQDFEL (peptide)
peptide: ALLSQDFEL
On to B18, for which the peptide exchange yield was greater than 75%.

B19: HLIGWTAFL (peptide)
peptide: HLIGWTAFL
With B19, the peptide exchange yield is greater than 75%.

B20: VLFPMDLAL (peptide)
peptide: VLFPMDLAL
For B20, the peptide exchange yield lay within 50 to 75%.

B21: STLHLVLRL (peptide)
peptide: STLHLVLRL
Regarding B21, the peptide exchange yield is 50 to 75%.

B22: VLMEMSYRL (peptide)
peptide: VLMEMSYRL
With B22, the peptide exchange yield lay in the range of 50 to 75%.

B23: ILDEPTNHL (peptide)
peptide: ILDEPTNHL
Regarding B23, the peptide exchange yield was in the range of 20 to 50%.

B24: QLYNQIIKL (peptide)
peptide: QLYNQIIKL
With B24, the peptide exchange yield is greater than 75%.

B25: FLPRKFPSL (peptide)
peptide: FLPRKFPSL
B25: the peptide exchange yield is greater than 75%.

B26: ALADLQEAV (peptide)
peptide: ALADLQEAV
Turning to B26, the peptide exchange yield was greater than 75%.

B27: TLKEYLESL (peptide)
peptide: TLKEYLESL
In the case of B27, the peptide exchange yield was 50 to 75%.

B28: LLPDPLYSL (peptide)
peptide: LLPDPLYSL
B28: the peptide exchange yield fell in the range of 20 to 50%.

B29: FLNLFNHTL (peptide)
peptide: FLNLFNHTL
Turning to B29, the peptide exchange yield is greater than 75%.

B30: SVNGFISTL (peptide)
peptide: SVNGFISTL
In the case of B30, the peptide exchange yield fell in the range of 20 to 50%.

B31: FVYGEPREL (peptide)
peptide: FVYGEPREL
On to B31, for which the peptide exchange yield was in the range of 50 to 75%.

B32: TLWYVPLSL (peptide)
peptide: TLWYVPLSL
As to B32, the peptide exchange yield is greater than 75%.

B33: VLFGAVITGA (peptide)
peptide: VLFGAVITGA
With B33, the peptide exchange yield is greater than 75%.

B34: GLDSGFHSV (peptide)
peptide: GLDSGFHSV
Turning to B34, the peptide exchange yield is greater than 75%.

B35: KMVGDVTGA (peptide)
peptide: KMVGDVTGA
In the case of B35, the peptide exchange yield is 50 to 75%.

B36: LLDDPTNAHFI (peptide)
peptide: LLDDPTNAHFI
For B36, the peptide exchange yield lay within 50 to 75%.

B37: KIEDLIKYL (peptide)
peptide: KIEDLIKYL
In the case of B37, the peptide exchange yield was in the range of 50 to 75%.

B38: FLYTYIAKV (peptide)
peptide: FLYTYIAKV
For B38, the peptide exchange yield is 50 to 75%.

B39: KVPEIEVTV (peptide)
peptide: KVPEIEVTV
Regarding B39, the peptide exchange yield was greater than 75%.

B40: ILDEGHILQL (peptide)
peptide: ILDEGHILQL
Turning to B40, the peptide exchange yield was greater than 75%.

B41: FLDSEVSEL (peptide)
peptide: FLDSEVSEL
For the molecule B41, the peptide exchange yield was 50 to 75%.

B42: FIDPEQIQV (peptide)
peptide: FIDPEQIQV
For the molecule B42, the peptide exchange yield lay within 50 to 75%.

B43: LLSNTVSTL (peptide)
peptide: LLSNTVSTL
On to B43, for which the peptide exchange yield lay in the range of 50 to 75%.

B44: SLYSYFQKV (peptide)
peptide: SLYSYFQKV
On to B44, for which the peptide exchange yield was greater than 75%.

B45: VLFKDPVSV (peptide)
peptide: VLFKDPVSV
Turning to B45, the peptide exchange yield is greater than 75%.

B46: FLPFLTTEV (peptide)
peptide: FLPFLTTEV
Turning to B46, the peptide exchange yield is greater than 75%.

B47: LLPELRDWGV (peptide)
peptide: LLPELRDWGV
As for B47, the peptide exchange yield was in the range of 50 to 75%.

B48: NMMSGISSV (peptide)
peptide: NMMSGISSV
Consider B48, for which the peptide exchange yield is 50 to 75%.

B49: KLGFGTGVNVYL (peptide)
peptide: KLGFGTGVNVYL
B49: the peptide exchange yield is greater than 75%.

B50: VLYNESLQL (peptide)
peptide: VLYNESLQL
On to B50, for which the peptide exchange yield was greater than 75%.

B51: ALFAAGANV (peptide)
peptide: ALFAAGANV
With B51, the peptide exchange yield fell in the range of 50 to 75%.

B52: ALPPPPASI (peptide)
peptide: ALPPPPASI
For the molecule B52, the peptide exchange yield lay within 50 to 75%.

B53: SAAEPTPAV (peptide)
peptide: SAAEPTPAV
B53: the peptide exchange yield is 50 to 75%.

B54: IVDNTTMQL (peptide)
peptide: IVDNTTMQL
As for B54, the peptide exchange yield is 50 to 75%.

B55: GLDIITNKV (peptide)
peptide: GLDIITNKV
As to B55, the peptide exchange yield lay within 50 to 75%.

B56: TLLHFLAEL (peptide)
peptide: TLLHFLAEL
Turning to B56, the peptide exchange yield was greater than 75%.

B57: VMSSTLYTV (peptide)
peptide: VMSSTLYTV
For B57, the peptide exchange yield was greater than 75%.

B58: VLKADVVLL (peptide)
peptide: VLKADVVLL
Turning to B58, the peptide exchange yield was in the range of 20 to 50%.

B59: ILDDVAMVL (peptide)
peptide: ILDDVAMVL
As for B59, the peptide exchange yield lay in the range of 50 to 75%.

B60: YLINFEIRSL (peptide)
peptide: YLINFEIRSL
Turning to B60, the peptide exchange yield was greater than 75%.

B61: EVISKLYAV (peptide)
peptide: EVISKLYAV
As for B61, the peptide exchange yield is 50 to 75%.
